Assay results: PMC9097460, “The molecular basis of spinocerebellar ataxia type 48 caused by a de novo mutation in the ubiquitin ligase CHIP” (The Journal of Biological Chemistry, 2022)

Molecular target: the molecule itself
Experiment: SEC + other: mass photometry; recombinant CHIP run on size-exclusion chromatography, fractions analysed by mass photometry at 30 nM in 20 mM Hepes pH 8, 200 mM NaCl, 1 mM DTT

B1: CHIP A52G point mutant, recombinant (enzyme, human, UniProt Q9UNE7 1-303, looked up)
chain: MKGKEEKEGGARLGAGGGSPEKSPSAQELKEQGNRLFVGRKYPEAAACYGRGITRNPLVAVYYTNRALCYLKMQQHEQALADCRRALELDGQSVKAHFFLGQCQLEMESYDEAIANLQRAYSLAKEQRLNFGDDIPSALRIAKKKRWNSIEERRIHQESELHSYLSRLIAAERERELEECQRNHEGDEDDSHVRAQQACIEAKHDKYMADMDELFSQVDEKRKKRDIPDYLCGKISFELMREPCITPSGITYDRKDIEEHLQRVGHFDPVTRSPLTQEQLIPNLAMKEVIDAFISENGWVEDY
notes: CHIP (STUB1 product) with the patient's de novo A52G mutation (c.155C > G), introduced by QuikChange into the pGEX6p-1 construct; Mutation found in a patient with SCA48; also called A52G mutant; source: E. coli, purified
- binding result: binds
